Columns and labels:
ZvPNO = biological target: T1, ZvPNO (Zonocerus variegatus, UniProt L0N8S9); format: biochemical; details: 0.2 mM NADPH; 100 mM glycine/NaOH pH 9; 37°C
T1 construct: gene pno; full ORF (1242 bp, 47,793 Da subunit), no signal peptide predicted, C-terminal His6, pET28a, E. coli BL21(DE3), Ni-NTA; homodimer (91,200 Da)
Description: (§1) photometric or radioassay N-oxygenation, initial rates on ZvPNO

[1] = system: CN1[C@@H]2CC[C@H]1CC(OC(=O)C(CO)c1ccccc1)C2; assay: purified protein; details: 0.2 mM NADPH, 100 mM glycine/NaOH pH 9, 37°C
[2] = system: C/C=C1/C[C@@H](C)[C@@](C)(O)C(=O)OCC2=CCN3CC[C@@H](OC1=O)[C@@H]23; assay: purified protein; format: biochemical, Zonocerus variegatus; details: 0.2 mM NADPH, 100 mM glycine/NaOH pH 9, 37°C
Description: as §1

[3] = system: CO[C@H](C)[C@](O)(C(=O)OCC1=CCN2CC[C@H](O)[C@@H]12)C(C)C; assay: purified protein; format: biochemical, Zonocerus variegatus; details: 0.2 mM NADPH, 100 mM glycine/NaOH pH 9, 37°C
Description: as §1

[4] = system: C[C@H]1C(=O)O[C@@H]2CCN3CC=C(COC(=O)[C@](C)(O)[C@]1(C)O)[C@H]23; assay: purified protein; format: biochemical, Zonocerus variegatus; details: 0.2 mM NADPH, 100 mM glycine/NaOH pH 9, 37°C
Description: as §1

| Substance | Km (ZvPNO) [µM] | Km [1] [µM] | Vmax [1] [µmol/min/mg] | kcat [1] [s⁻¹] | kcat/Km [1] [M⁻¹ s⁻¹] | Km [2] [µM] | Vmax [2] [µmol/min/mg] | kcat [2] [s⁻¹] | kcat/Km [2] [M⁻¹ s⁻¹] | Km [3] [µM] | Vmax [3] [µmol/min/mg] | kcat [3] [s⁻¹] | kcat/Km [3] [M⁻¹ s⁻¹] | Km [4] [µM] | Vmax [4] [µmol/min/mg] | kcat [4] [s⁻¹] | kcat/Km [4] [M⁻¹ s⁻¹] |
| --- | --- | --- | --- | --- | --- | --- | --- | --- | --- | --- | --- | --- | --- | --- | --- | --- | --- |
| phalaenopsine | 838 ± 77.4 | – | – | – | – | – | – | – | – | – | – | – | – | – | – | – | – |
| ZvPNO (Zonocerus variegatus) | – | 9.83 ± 1.04 | 0.461 | 0.37 | 37600 | 1.08 ± 0.07 | 1.24 | 0.99 | 917000 | 263.89 ± 10.06 | 0.149 | 0.12 | 454 | 11.93 ± 0.76 | 1.2 | 0.96 | 80500 |

— publication PMC3282741, “Independent Recruitment of a Flavin-Dependent Monooxygenase for Safe Accumulation of Sequestered Pyrrolizidine Alkaloids in Grasshoppers and Moths” (PLoS ONE, 2012)
